For this data set, the target named is T1, recombinant NRF-1 (rNRF-1) (human, UniProt Q16656 1-503).
T1 sequence: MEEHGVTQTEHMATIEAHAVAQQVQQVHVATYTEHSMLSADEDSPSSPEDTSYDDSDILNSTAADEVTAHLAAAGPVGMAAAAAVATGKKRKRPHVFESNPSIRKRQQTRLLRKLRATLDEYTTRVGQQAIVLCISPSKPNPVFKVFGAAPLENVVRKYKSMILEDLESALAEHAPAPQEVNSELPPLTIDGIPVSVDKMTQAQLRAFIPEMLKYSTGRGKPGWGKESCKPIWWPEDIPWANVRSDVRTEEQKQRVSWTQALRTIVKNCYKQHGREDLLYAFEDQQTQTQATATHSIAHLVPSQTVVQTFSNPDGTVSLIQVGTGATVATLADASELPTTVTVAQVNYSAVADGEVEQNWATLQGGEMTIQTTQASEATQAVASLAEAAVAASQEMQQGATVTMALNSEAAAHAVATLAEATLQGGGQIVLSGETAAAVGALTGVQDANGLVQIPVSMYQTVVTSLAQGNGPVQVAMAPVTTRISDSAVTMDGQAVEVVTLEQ
Description: EMSA; 0.03-5 ug protein, concentration-dependent; 25 mM HEPES pH 7.6, 5 mM MgCl2, 34 mM KCl, 50 ug/mL poly dI:dC, 0.5 mg/mL BSA, on ice 15 min; 6% acrylamide 0.25x TBE gel. As to conditions: tags: N-terminal MBP fusion (pMAL-c2), chain copies: 2, label: 32P. On the technique in general: In EMSA bound probe runs differently from free probe, usually more slowly.

B1: Gb-270 (dsDNA)
DNA 1: CTGCCGCGCAGGCGCCGGGC
DNA 2: GCCCGGCGCCTGCGCGGCAG
Regarding B1, the binding result is listed as “binds”.

Values taken from article PMC3127848, “Decreased expression of BRCA1 in SK-BR-3 cells is the result of aberrant activation of the GABP Beta promoter by an NRF-1-containing complex”.
